According to the DeepSol protein solubility set:

Experiment: soluble on expression in E. coli; label from the status in PepcDB or PDB records
For “MKVGIIMGSVRAKRVCPEIAAYVKRTIENSEELIDQKLKIQVVDLQQIALPLYEDDDELIPAQIKSVDEYADSKTRSWSRIVNALDIIVFVTPQYNWGYPAALKNAIDRLYHEWHGKPALVVSYGGHGGSKCNDQLQEVLHGLKMNVIGGVAVKIPVGTIPLPEDIVPQLSVHNEEILQLLASCIETTRNK”, the “soluble on expression in E. coli” value was “soluble”. With “MGSDDQSAGDRIQKGFQINYMILRDADSGKIIWQENKDFSAPDQEHEARVPVKILDMRAVSREINFSTIESMENFRLDQKVLFKGRIMEEWFFEMGFVGANTTNTWQSTIEAAPESQMMPAKVLNGNVTIQTSFYDNETLITKSVVRLYYILEHHHHHH” the “soluble on expression in E. coli” value was “not soluble”. For “MSLSQHIRKLDSDVSERLKSQACTVSLASAVREIVQNSVDAHATTIDVMIDLPNLSFAVYDDGIGLTRSDLNILATQNYTSKIRKMNDLVTMKTYGYRGDALYSISNVSNLFVCSKKKDYNSAWMRKFPSKSVMLSENTILPIDPFWKICPWSRTKSGTVVIVEDMLYNLPVRRRILKEEPPFKTFNTIKADMLQILVMHPMISLNVQYTDKLRINTEVLFRSKNITEGLTKHQQMSQVLRNVFGAIIPPDMLKKVSLKFNEYQIEGIISKMPVGLKDLQFIYINGRRYADSAFQGYVDSLFQAQDFGEKGMSLLKTKSVGKPYRSHPVFILDVRCPQTIDDLLQDPAKKIVKPSHIRTIEPLIVKTIRSFLTFQGYLTEGHHHHHH”, the “soluble on expression in E. coli” value was “not soluble”. For “GPGSMLDAATGKSKGFGFVLFDEEEKGAKAYKALNRKMTRACGHSFTLVIYPSNHNGKIFTEESNALYIRNIPISIGQEKMERFLRTFGNLIYFAMREDHYGNPVWVVYAEYETVDDAKNALAKLHGNNTYFHGSVPILAKFEDSDDAKKERRRRRDGMQTHDRTAGAFFRHRSATTRTLDRFTPLPRR”, the “soluble on expression in E. coli” value was “not soluble”. In the case of “MEAKTNTFLLVAERWWNVKKTSVTEDYADDIWRSLERDIFPAIGDISITEIKAHTLVKAVQPVQARGALETVRRLCQRINEVMIYAQNTGLIDAVPSVNIGKAFELEHHHHHH”, the “soluble on expression in E. coli” value is reported as “not soluble”. For “MDLRDLKTFLHLAESRHFGRSARAMHVSPSTLSRQIQRLEEDLGQPLFVRDNRTVTLTEAGEELRVFAQQTLLQYQQLRHTLDQQGPSLSGELHIFCSVTAAYSHLPPILDRFRAEHPSVEIKLTTGDAADAMEKVVTGEADLAIAGKPETLPGAVAFSMLENLAVVLIAPALPCPVRNQVSVDKPDWSTVPFIMADQGPVRRRIELWFRRHKISNPQIYATVGGHEAMVSMVALGCGVALLPEVVLENSPEPVRNRVMILERSDEKTPFELGVCAQKKRLHEPLIDAFWKILPN”, the “soluble on expression in E. coli” value was “soluble”. In the case of “MCGKFTLFSEFDDIIEQFNIDQFLPEGEYHPSYNVAPSQNILTIINDGSNNRLGKLRWGLIPPCAKDEKIGYKMINARAETLAEKPSFRKPLGSKRCIIPADSFYEWKRLDPKTKIPMRIKLKSSNLFAFAGLYEKWNTLEGNLLYTCTIITIKPSELMEDIHDRMPVILTDENKKEWLNPKNTDPDYLQSLLLPYDADDMEAYQVSSLVNSPELIESHLEHHHHHH”, the “soluble on expression in E. coli” value is reported as “not soluble”. For “MGSDKIHHHHHHVTFFERYSRVLFERYQGKVKYWLTFNEINGAQFMPMLSLGMAVREDENMLQSTYQGLHHQFVASSLATKAAREIDPTMQIGCMLIAAPVYPFSSNPVDVQFALEEERMMNYFCGDVHVRGAYPAFAGRFFSENNIELVVEDGDLELLRDYTVDFFSLSYYMSRTEKAEKDGNEAGGNIMSGVKNPYLKASDWGWEINPDGLRIILNKLYDRYQIPLFIVENGLGAYDEIIASNGATLTQTSVSK”, the “soluble on expression in E. coli” value was “not soluble”. With “MAHRRKFGGGRGEAVAKAVGIKGSALPTVIDATAGLGRDAFVLAAIGCQVRLVERHPVVFLLLQDGLNRAYQDEEIGEMLQQNLHLLNVQHINELDPNSDYADVVYLDPMYPHKQKSALVKKEMRVFQHLVGADLDADELLLPALQLAKKRVVVKRPDYAEFLCGKQPHFSHETKNHRFDIYMGASQCLEHHHHHH” the “soluble on expression in E. coli” value was “not soluble”. In the case of “MGSDKIHHHHHHMINRKFINTVLAKRSTRSGLCQSATRTSRWLAVAIAILLANNSHADTSQTNVAAPAKTSACYLDGLDEQLQCGKITVLENPQLPDGKQIDIHFAILPAIKNTHPNEALLAIAGGPGQSAIENAAFFNRMLTKVRQQRDILLIDQRGTGKSNILSCDDDTTELLSMNDDDLDIIAMTEKCLGQIDADVSQYGSNTALTDFEAVREYLGYQKLHLYGISYGTRMAQLYMRHYPEALLTVTLDGVVPMQQSVVAIGDSIERGLNVLWRDCKSTPACQQQFPDLADEYNKVDQLLATAPISQQVRDPQTDELSEFLLTRSKFSGAIRMAMYMANIRALIPHAIHQAAQGNYQPILGIYTLTADSTGIAMGMHASVVCGEDIHRITDQMRKDAKESYISGNMLEGLEKTCQAWPIPQVDDNFSEPILSDIPTLLLSGELDPATPPNWGALAQEKLTKSKHFIAPYATHGVAGQSCGNDLVAQLVDQGSVKDINGECLQKDVRRSFYLNANTVEALPVIDTPTDIETTAPANTAADKE”, the “soluble on expression in E. coli” value is reported as “not soluble”. In the case of “MSTIAKDQTQINDKIRAKELRLIGQDGEQIGVKSKREALEMAERVDLDLVVVAPNAKPPVARIMDYGKFKFEQQKKEKEMKKKQKIINVKEIRLSPTIEEHDFQTKLKNGRKFLTKGDKCKVSIRFRGRAITHKEIGQRVLEKYADECKDIATVEQKPKMDGRQMFIMLAPTAEK”, the “soluble on expression in E. coli” value is reported as “not soluble”. In the case of “MFSRPGLPVEYLQVPSASMGRDIKVQFQGGGPHAVYLLDGLRAQDDYNGWDINTPAFEEYYQSGLSVIMPVGGQSSFYTDWYQPSQSNGQNYTYKWETFLTREMPAWLQANKGVSPTGNAAVGLSMSGGSALILAAYYPQQFPYAASLSGFLNPSEGWWPTLIGLAMNDSGGYNANSMWGPSSDPAWKRNDPMVQIPRLVANNTRIWVYCGNGTPSDLGGDNIPAKFLEGLTLRTNQTFRDTYAADGGRNGVFNFPPNGTHSWPYWNEQLVAMKADIQHVLNGATPPAAPAAPAALEHHHHHH”, the “soluble on expression in E. coli” value is reported as “soluble”. In the case of “MGSDKIHHHHHHMKKQNIAGFSKVDDTANPQDFVSYLDAISSLNSIQKYKQQTFTRLEIQAGDRILDVGCGIGDDVRSLAVKVGNAGEVVGIDRSETMVKEAQSRSADLGLPVAYYVGDAEKLEFPDCTFDACRSDRTFQHLLNPRQALTEIVRVTRCGGRVVVSDPDWETLVIDTGDRALTRKILNFHCDSCVNGWIGRQLPTLFQEVGLHKINVDTYTLILTDCTLADKHLGVINAAMKAQQAGLISIAEAANWITNLEAASQAGRFFCAITGFLAFGCKP”, the “soluble on expression in E. coli” value is reported as “not soluble”. With “MKKIQTPNAKGEVRIIAGLWRGRKLPVLNSEGLRPTGDRVKETLFNWLMPYIHQSECLDGFAGSGSLGFEALSRQAKKVTFLELDKTVANQLKKNLQTLKCSSEQAEVINQSSLDFLKQPQNQPHFDVVFLDPPFHFNLAEQAISLLCENNWLKPNALIYVETEKDKPLITPENWTLLKEKTTGIVSYRLYQNLEHHHHHH” the “soluble on expression in E. coli” value was “soluble”. For “MGSDKIHHHHHHMTNVSGYHRPELHITAESGVLFAPAGVLLDDDTWHFFHQYRPSPDHGPRWAHQFAERTPFVWDICDDVLAPEGDETQVRAGSVVSNNGGVDLYFTSVVGPTSTIQLAHINNIRGTTELINEDELGLDPDVSRIGEVVGNTDGYVKFRSPCVIPGWEDQGNRDEGHSGWLMLAVTGPVEAPTVVVLDSPDGREWSITGPLSLNGLSGLESDEVLVAPRMIRLRDEVDHEIYDVLIVTIEQDGIDISGYLVGQLNGSEFDVKTPFTRIDFGHDFSRPRNTNYAETTIGYDFAHIFGLMNGVGRLDSPTEHLSWKEEGWANAISFPRIVTLQDGTVFQTPPEGLLDAIHESEAAAGWTGLCEIPSNSAVEVALKDQEGEIAATITHRHNQLVVDRSMNPNHAGDPHAIAPLTDDETDSLFIVVDGSTVEVFADGGYVSMASRVYFNNGPFSEFEVTTTGDASIIRQESHFPVDFSSVSLDIDDLTALMQFDENEPHEGPVR”, the “soluble on expression in E. coli” value was “not soluble”. In the case of “MAHHHHHHMGTLEAQTQGPGSMFKLTGRKALVTGATGGIGEAIARCFHAQGAIVGLHGTREDKLKEIAADLGKDVFVFSANLSDRKSIKQLAEVAEREMEGIDILVNNAGITRDGLFVRMQDQDWDDVLAVNLTAASTLTRELIHSMMRRRYGRIINITSIVGVVGNPGQTNYCAAKAGLIGFSKALAQEIASRNITVNCIAPGFIKSAMTDKLNEKQKEAIMAMIPMKRMGIGEEIAFATVYLASDEAAYLTGQTLHINGGMAMI”, the “soluble on expression in E. coli” value is reported as “soluble”. For “MSSALLRAAYAYDRLRAHPPEVAGQIATAMASAVHPKGEEPVFLELGVGTGRIALPLIARGYRYIALDADAAMLEVFRQKIAGVDRKVQVVQADARAIPLPDESVHGVIVVHLWHLVPDWPKVLAEAIRVLKPGGALLEGWDQAEASPEWTLQERWRAFAAEEGFPVERGLHAKRLKEVEEALRRLGLKPRTREVARWREERTPREALEALSERLYSFTQGLPEPVHARVMERLWAWAEAELGDLDRPFPVEKRFLLRVSRLG”, the “soluble on expression in E. coli” value was “soluble”. In the case of “MCTGIKIISKTNDIFYGRTMDFTFDFFGNEDPIAPKIPTLIAQFPKGTVLNSQLNPWTAKYAFMGLAMSGTDQPANDGKTVSLAITDGINEAGLSGDIQYLMESSTAPAESLADRGLTPHIAEEVLAYILSNFESVDEVKVAFEKIGLLDQKFQLDSLGEVHFTLHWTINDKNNNSIVLQPTDNGAFVIYDSIGVVTNSPEYNYHLTNARNYIGMRNYAIKEPYTLKSGATLDPIEGGTSYGLLGIPGDFTSPSRFIRALYYSDNLQEFDSSEGIMQLYRAFQTVMIPRGIGHLGQSNSLSDFTHYWSGYDVTNLTMYVQPESTTSFTKYTLDPALTEVTTFAVSNELLLTDLNQ”, the “soluble on expression in E. coli” value is reported as “not soluble”. For “MSLIKTEFKGNNIPYEYAAGADVSDSINGNPIKSFPFEVIELPEGTKYLAWSLIDYDAIPVCGFAWIHWSVANVSVSGNSISIKADLSRTKGDYVQGKNSFTSGLLAEDFSEIENHYVGPTPPDQDHQYELTVYALDHSLNLKNGFYLNEFLKEVNQHKIDQTSINLIGRKEGGSHHHHHH”, the “soluble on expression in E. coli” value was “soluble”. For “MSLSDSNDDRPFRPFQSQYRWPGVDLLAYKEEGSAPFRSVTRQVLFSGNGLTGELRYFEVGPGGHSTLERHQHAHGVMILKGRGHAMVGRAVSAVAPYDLVTIPGWSWHQFRAPADEALGFLCMVNAERDKPQLPTEGHHHHHH”, the “soluble on expression in E. coli” value was “not soluble”. With “MGSDKIHHHHHHMKFVEIRDLQVTYMGKDKPSIVVDKLDIEEGESVLITGRSGSGKSTLVSVINGVIPHLINAEIKGEVRVFGFDVKSTPIHEISKYVGTLLQDPDTQAFNYTIIDEVAFGVENYMISRDEMIERVEESMKIYGISHLRDREINTLSGGELQRTILASVLAMRPKALILDEPTSNIDPQGTREILELVKTFRSEGISLVLVEHKIERVLPFVDRIIVVEEGKIAVDVRKDEIVDKADFLYSLGLEIPDYMLFLKKNGFRKIDYEYLRKTYTYRPPSRIGGKGEALYASVKVKTKNGIYLINTKISLKQGTITALMGKNGSGKTTLLKVIVGLIDKKRLIVEEEKVIVNGVDLSKTKLVERGKFIAYLPQFFDVMFIKRTVEDEIKFSMKNRGTYDEKRLGEVLKMFSLDAYRKEDPLVLSMGQRRRVAMASVLAGGAKVILMDEPTSGQDWYHRQILGKELLELRDKGYTILVVTHDSRFVDRFADYLLVMNEGKIVLEGKPEEVFIKSLRHGIEPPLEYELGGLIKNEHFS” the “soluble on expression in E. coli” value was “not soluble”. With “MESKAENRKKILQMLKNFSDYEKRRQNKDVLKQLTASSKWKSAKKIALYMSMPIEFNLTELFDQSDDKEILIPKCLPERQMIFAKYDKENLVRSKFGLLEPKSEIAVEPDFILVPGLIWNDEGYRIGFGGGYYDRYLANFEGSTASVLYDFQKMDFEAESHDIAVQELFIGRKNNEFLEHHHHHH” the “soluble on expression in E. coli” value was “soluble”. In the case of “MNVLDEPDRLHGAHVPIRRGSVRQLQWWEPTPAERVRVLAWTCDCQARFYELCQSGGMVYIRRTVQKDPEPEISETHRWPVQEGWRVWFDLLTGEVR”, the “soluble on expression in E. coli” value is reported as “not soluble”.
